Test results taken from patent US20050019306.

Molecular target: p48-VP16 TAD (Homo sapiens / Herpes simplex virus) (UniProt Q00978)
Experiment: cell_activity
Details: 293T ISRE-Luc reporter

Sequence of UniProt Q00978 (Q00978 1-393, tags or fused parts left off): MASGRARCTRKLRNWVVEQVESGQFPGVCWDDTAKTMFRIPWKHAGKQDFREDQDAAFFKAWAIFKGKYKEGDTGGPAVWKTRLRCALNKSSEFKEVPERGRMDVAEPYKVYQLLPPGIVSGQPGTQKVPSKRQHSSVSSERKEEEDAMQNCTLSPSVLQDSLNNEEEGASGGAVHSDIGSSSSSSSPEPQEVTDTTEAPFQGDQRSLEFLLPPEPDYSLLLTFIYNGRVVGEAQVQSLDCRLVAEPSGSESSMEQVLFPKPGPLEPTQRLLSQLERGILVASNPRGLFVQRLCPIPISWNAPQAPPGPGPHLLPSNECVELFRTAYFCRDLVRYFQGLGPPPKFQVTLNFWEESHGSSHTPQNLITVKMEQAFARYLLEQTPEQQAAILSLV

## 5x ISG54 ISRE luciferase reporter
  activity (fold relative to p48-S2C): 3
